According to US20260098102A1 (NATIONAL UNIVERSITY CORPORATION KOBE UNIVERSITY, published 2026):
Changes are numbered by the printed parent chain.

T1: mouse SIRPA_C57BL/6 (mouse (C57BL/6), UniProt P97797 32-513)
T1 construct: FLAG-tagged (pFLAG V5-DEST), on 293α cells
T1 sequence: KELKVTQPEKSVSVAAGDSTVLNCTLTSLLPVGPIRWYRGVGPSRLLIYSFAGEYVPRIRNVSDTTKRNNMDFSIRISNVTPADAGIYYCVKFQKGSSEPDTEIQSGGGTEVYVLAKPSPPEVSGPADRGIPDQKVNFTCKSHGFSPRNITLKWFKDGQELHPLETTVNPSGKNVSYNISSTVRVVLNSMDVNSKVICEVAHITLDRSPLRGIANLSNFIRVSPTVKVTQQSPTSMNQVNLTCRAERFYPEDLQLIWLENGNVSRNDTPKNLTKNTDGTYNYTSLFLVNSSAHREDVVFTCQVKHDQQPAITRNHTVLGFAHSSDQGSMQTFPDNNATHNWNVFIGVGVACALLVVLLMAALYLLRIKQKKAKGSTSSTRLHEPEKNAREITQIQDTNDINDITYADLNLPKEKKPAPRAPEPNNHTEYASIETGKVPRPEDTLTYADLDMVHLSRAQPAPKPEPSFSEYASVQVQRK

T2: mouse SIRPA variant hmSIRPA_Δ1 (mouse (with human residues), UniProt P97797 35-513)
T2 construct: FLAG-tagged (pFLAG V5-DEST), on 293α cells
T2 chain: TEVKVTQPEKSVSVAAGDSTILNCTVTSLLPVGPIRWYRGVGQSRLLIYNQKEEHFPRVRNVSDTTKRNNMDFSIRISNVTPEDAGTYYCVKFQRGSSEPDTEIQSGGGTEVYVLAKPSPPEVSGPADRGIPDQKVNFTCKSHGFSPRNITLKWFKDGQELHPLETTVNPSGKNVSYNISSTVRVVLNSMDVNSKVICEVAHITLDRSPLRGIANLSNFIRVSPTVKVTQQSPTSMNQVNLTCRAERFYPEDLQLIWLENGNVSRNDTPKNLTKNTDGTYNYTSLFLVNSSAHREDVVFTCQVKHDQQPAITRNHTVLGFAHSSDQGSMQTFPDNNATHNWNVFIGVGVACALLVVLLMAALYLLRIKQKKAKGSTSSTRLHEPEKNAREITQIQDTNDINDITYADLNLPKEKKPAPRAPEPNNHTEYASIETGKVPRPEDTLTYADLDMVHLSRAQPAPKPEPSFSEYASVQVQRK

B1: human chimeric anti-SIRPA antibody cD13 (antibody, human IgG4 S228P, kappa, F234A L235A, V domains shown)
VH: EVQLVESGGGLVQPGRSLKLSCLASGFTFSDYGMIWVRQAPGKGLEWVASISSSSSYIYYADTVKGRFTISRENAKNTLFLHMTSLRSEDTALYYCARRYYGFNYPFDYWGQGVMVTVSS
VL: DTVLTQSPALAVSLGQRVTISCGASKSVRTYMHWYQQKSGQQPKLLIYSASNLEAGVPSRFSGSGSGTDFTLTIDPVEADDIANYYCQQSNEPPYTFGAGTKLELKR
notes: Human IgG4proFALA heavy chain, human kappa light chain; also called cD13 (IgG4pf); human chimeric antibody D13
B2: humanized anti-SIRPA antibody hD13_H1L3 (antibody, human IgG4 S228P, kappa, F234A L235A, V domains shown)
VH: QVQLVESGGGVVQPGRSLRLSCAASGFTFSDYGMIWVRQAPGKGLEWVASISSSSSYIYYADSVKGRFTISRDNSKNRLYLQMNSLRAEDTAVYYCARRYYGFNYPFDYWGQGTMVTVSS
VL: DTQLTQSPSSLSASVGQRVTITCGASKSVRTYMHWYQQKPGKQPKLLIYSASNLEAGVPSRFSGSGSGTDFTLTISSLQPEDFATYYCQQSNEPPYTFGQGTKLEIKR
notes: hH1 heavy chain (IgG4proFALA) and hL3 kappa light chain; also called hD13_HIL3; HIL3 antibody
B3: humanized anti-SIRPA antibody hD13_H1L4 (antibody, human IgG4 S228P, kappa, F234A L235A, V domains shown)
VH: B2 VH
VL: DTVLTQSPDSLAVSLGQRATINCGASKSVRTYMHWYQQKPGQQPKLLIYSASNLEAGVPSRFSGSGSGTDFTLTISSLQAEDVAVYYCQQSNEPPYTFGQGTKVEIKR
notes: hH1 heavy chain (IgG4proFALA) and hL4 kappa light chain; also called hD13_HIL4; hD13_HIL4h
B4: humanized anti-SIRPA antibody hD13_H2L2 (antibody, human IgG4 S228P, kappa, F234A L235A, V domains shown)
VH: B2 VH with Q1E, R78T
VL: B2 VL with D1A, T2I, Q43A
notes: hH2 heavy chain (IgG4proFALA) and hL2 kappa light chain; also called H2L2 antibody
B5: humanized anti-SIRPA antibody hD13_H2L3 (antibody, human IgG4 S228P, kappa, F234A L235A, V domains shown)
VH: B2 VH with Q1E, R78T
VL: B2 VL
notes: hH2 heavy chain (IgG4proFALA) and hL3 kappa light chain; also called H2L3 antibody

What was measured:
mouse SIRPA_C57BL/6 = target: T1, mouse SIRPA_C57BL/6; experiment: cell-based ELISA on 293α cells expressing FLAG-tagged mouse SIRPA (C57BL/6); Abs 490 normalized to FLAG tag [i]
Method: The 293a cells, described in Example 1)-6, were prepared at 5× 10⁵ cells/mL in a 10% FBS-containing DMEM medium. pFLAG V5-DEST-SIRPA_V1-V10, pFLAG V5-DEST-monkey SIRPA, pFLAG V5-DEST-mouse SIRPA, or pFLAG V5-DEST was introduced into the cells using Lipofectamine LTX (Invitrogen), and 100 μL each was aliquoted to a 96-well plate (Corning Incorporated) and cultured overnight in a 10% FBS-containing DMEM medium at 37° C. under a 5% CO₂ condition. The obtained introduced cells were used for cell-based ELISA in a state that they adhered. After the culture supernatant was removed, 50 μL per well of hD13_HIL3, hD13_HIL4h, hD13_H2L2, hD13_H2L3, or cD13 prepared in Examples 6 and 7 or a control antibody was added to each of various SIRPA genes-introduced cells at a final concentration of 0 to 10,000 ng/ml, and the mixture was allowed to stand at 4° C. for one hour. Thereafter, binding to human SIRPA was evaluated in the same manner as in Example 5-1.

[1] = target: T2, mouse SIRPA variant hmSIRPA_Δ1; experiment: cell-based ELISA on 293α cells expressing FLAG-tagged hmSIRPA_Δ1; Abs 490 normalized to FLAG tag [ii]
Method: After the culture supernatant of 293α cells into which the pFLAG V5-DEST-hmSIRPA_Δ0, Δ1, and Δ2 expression vector prepared in 2)-1-2-2 was introduced and the pFLAG V5-DEST-introduced 293α cells was removed, 50 μL per well of four different D13 humanized anti-human SIRPA antibodies and a chimeric anti-human SIRPA antibody diluted with 5% FBS-containing PBS to a final concentration of 10,000 ng/mL were added to these cells, and the mixture was allowed to stand at 4° C. for one hour. Further, 50 μL per well of an anti-FLAG M2 antibody (SIGMA) diluted with 5% FBS-containing PBS to a final concentration of 10,000 ng/mL was added to a well for detecting expression of each SIRPA construct, and the mixture was allowed to stand at 4° C. for one hour. Thereafter, binding to each construct was evaluated in the same manner as in the evaluation of the binding activity of the human SIRPA. Binding of anti-human SIRPA antibodies to each construct was standardized by expression of the FLAG tag.

| Binder | binding result (mouse SIRPA_C57BL/6) | binding result [1] |
| --- | --- | --- |
| B1 | no binding (tested: 10000 ng/mL) | no binding (tested: 10000 ng/mL) |
| B2 | no binding (tested: 10000 ng/mL) | no binding (tested: 10000 ng/mL) |
| B3 | no binding (tested: 10000 ng/mL) | no binding (tested: 10000 ng/mL) |
| B4 | no binding (tested: 10000 ng/mL) | no binding (tested: 10000 ng/mL) |
| B5 | no binding (tested: 10000 ng/mL) | no binding (tested: 10000 ng/mL) |
